The results in this text go back to PMC10939407 (Nucleic Acids Research, 2023).

The target of the experiment is MBP-DHX15-His10 (human, UniProt O43143 1-795). In words: pull-down.
MBP-DHX15-His10, sequence (O43143 whole entry): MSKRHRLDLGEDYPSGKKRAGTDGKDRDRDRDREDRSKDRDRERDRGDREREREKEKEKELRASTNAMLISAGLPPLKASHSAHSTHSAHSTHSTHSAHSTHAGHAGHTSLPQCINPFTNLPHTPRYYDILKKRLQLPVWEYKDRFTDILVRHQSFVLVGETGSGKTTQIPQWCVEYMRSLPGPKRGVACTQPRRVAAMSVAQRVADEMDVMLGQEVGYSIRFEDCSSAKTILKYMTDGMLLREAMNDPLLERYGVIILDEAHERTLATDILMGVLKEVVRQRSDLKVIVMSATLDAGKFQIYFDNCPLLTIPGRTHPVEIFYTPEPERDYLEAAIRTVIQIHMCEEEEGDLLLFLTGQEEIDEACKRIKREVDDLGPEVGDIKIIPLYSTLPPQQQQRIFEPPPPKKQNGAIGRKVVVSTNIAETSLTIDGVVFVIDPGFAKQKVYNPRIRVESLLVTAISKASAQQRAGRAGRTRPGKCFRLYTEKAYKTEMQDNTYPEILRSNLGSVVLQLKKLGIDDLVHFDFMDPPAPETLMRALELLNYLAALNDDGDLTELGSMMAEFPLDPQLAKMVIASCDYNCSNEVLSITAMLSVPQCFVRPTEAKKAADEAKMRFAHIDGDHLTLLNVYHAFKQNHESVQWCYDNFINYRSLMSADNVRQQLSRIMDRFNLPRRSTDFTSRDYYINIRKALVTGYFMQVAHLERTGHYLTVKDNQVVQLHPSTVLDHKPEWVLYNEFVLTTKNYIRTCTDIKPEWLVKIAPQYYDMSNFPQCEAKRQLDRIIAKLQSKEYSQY

As to GMKFAEEQLLKHGWTQGKGLGRKENGITQALRVTLKQDTHGVGHDPA (domain or fragment) [ZZ-GPATCH4GP-His7 (G-patch domain of GPATCH4, amino acids 11 to 57)], the binding result is listed as “binds”.
